Positions count from the first letter of the chain named.
B1: chimeric antibody CH-1601 (antibody, human IgG4 S228P, kappa, V domains shown)
VH: EVKLVESEGGLVQPGSSLKLSCTASGFTFSDYYMAWVRQVPEKGLEWVANINSDGSSTYYLDSLKSRFIISRDNAKNILYLQMSSLKSEDTATYYCARDHYHGNSYVFDYWGQGTTLTVSS
VL: DIQMTQSSSSFSVSRGNRVTITCKASEDIYNRLAWYQQKPGNAPRLIISGATSLETGVPSRFSGSGSGKDYTLSITSLQTEDVGTYYCQQYWSTPWTFGGGTKLEIKR
B2: humanized antibody h1601-005 (antibody, human IgG4 S228P, kappa, V domains shown)
VH: EVQLVESGGGLVQPGGSLRLSCAASGFTFSDYYMAWVRQAPGKGLEWVSNINSDGSSTYYLDSLKSRFTISRDNSKNTLYLQMNSLKAEDTAVYYCARDHYHGNSYVFDYWGQGTTVTVSS
VL: DIQMTQSPSSLSASVGDRVTITCKASEDIYNRLAWYQQKPGKAPKLLISGATSLETGVPSRFSGSGSGKDFTLTISSLQPEDFATYYCQQYWSTPWTFGGGTKVEIKR
B3: aTM-2 (antibody, V domains shown)
VH: B2 VH with H102L, Y110S
VL: DIQMTQSPSSLSASVGDRVTITCKASEDIYNRLAWYQQKPGKAPRLIISGATSLETGVPSRFSGSGSGKDYTLTISSLQPEDFATYYCQQYWSTPWTFGGGTKVEIK
B4: aTM-7 (antibody, V domains shown)
VH: B2 VH with H102M, Y110T
VL: B3 VL
B5: humanized antibody h1601-009 (antibody, human IgG4 S228P, kappa, V domains shown)
VH: B2 VH with Q3K, S49A
VL: B2 VL with K45R, L47I, F71Y
B6: aTM-1 (antibody, V domains shown)
VH: B2 VH with H102I, N104A
VL: B3 VL
B7: aTM-4 (antibody, V domains shown)
VH: B2 VH with H102L, Y110L
VL: B3 VL
B8: humanized antibody h1601-008 (antibody, human IgG4 S228P, kappa, V domains shown)
VH: B2 VH
VL: B2 VL with K45R, L47I, F71Y
B9: humanized antibody h1601-006 (antibody, human IgG4 S228P, kappa, V domains shown)
VH: B2 VH with Q3K, S49A
VL: B2 VL

Legend:
[1] = biological target: T1, human prothrombin with His tag (human, UniProt P00734 44-622); assay: BIAcore
T1 construct: also called h-prothrombin-his

[2] = biological target: T2, human thrombin with His tag (human, UniProt P00734 328-622); assay: BIAcore
[3] = biological target: T1, human prothrombin with His tag; assay: binding ELISA
[4] = biological target: T2, human thrombin with His tag; assay: binding ELISA
[5] = biological target: T3, mouse thrombin with His tag (mouse, UniProt P19221 325-618, limits assumed); assay: binding ELISA
T3 construct: also called m-thrombin-His; murine thrombin

[6] = biological target: T2, human thrombin with His tag; assay: binding ELISA, biotinylated His-tagged human thrombin on streptavidin plate
From the text: The binding ability of anti-thrombin antibody was detected by ELISA assay with the antibodies and the human thrombin with His tag. Thrombin protein with His tag labeled with the biotin-labeling kit (Dongren Chemicals, Cat No. LK03) was immobilized into a 96-well microtiter plate by binding to streptavidin coated on the microtiter plate, the strength of the signal after the addition of the antibody was used to determine the binding activity of the antibody to thrombin. The specific experimental method is as follows.
Streptavidin (Sigma, Cat No. S4762-5MG) was diluted to a concentration of 5 μg/ml with PBS buffer, pH 7.4 (Sigma, Cat No. P4417-100TAB) and added to a 96-well plate at a volume of 50 μl/well, and then, the plate was incubated in the incubator at 37° C. for 2 hours. After discarding the liquid, the plates were blocked with 200 μl/well of blocking solution containing 5% skim milk (Guangming skim milk) in PBS, and incubated in the incubator at 37° C. for 2.5 hours or overnight at 4° C. (16-18 hours). After blocking, the blocking solution was discarded and the plate was washed 5 times with PB ST buffer (PBS containing 0.05% tweeen-20, pH7.4). Human thrombin protein with His tag labeled with the biotin-labeling (SEQ ID NO: 2, as shown by the double underline) was diluted with sample dilution (PBS containing 1% BSA, PH7.4) to 50 μg/ml and was added to each well, 50 μl/well. Then the plate was incubated in the incubator at 37° C. for 2 h or overnight. After incubation, the blocking solution in the plate was discarded, and the plate was washed with PBST 6 times, and then 50 μl/well of various concentrations of the test antibodies diluted with sample dilution was added to each well, and the plate was incubated at 37° C. for 2 h. The plates were washed 5 times with PBST after incubation, and 100 μl/well of goat anti-human secondary antibody (Jackson Immuno Research, Cat No. 109-035-003) labeled with HRP was added to each well, diluted in sample dilution, and the plate was incubated at 37° C. for 1 h. After washing the plates 5 times with PBST, 50 μl/well of TMB chromogenic substrate (KPL, Cat No. 52-00-03) was added to each well, and incubated at room temperature for 10-15 min. The reaction was stopped by the addition of 50 μl/well 1M H₂SO₄ to each well.

[7] = biological target: T1, human prothrombin with His tag; assay: Biacore
[8] = biological target: T2, human thrombin with His tag; assay: Biacore
[9] = biological target: T2, human thrombin with His tag; assay: Biacore; ratio of KD on pro-thrombin to KD on thrombin
[10] = biological target: T1, human prothrombin with His tag; assay: Biacore; reference h1601-008
[11] = biological target: T2, human thrombin with His tag; assay: Biacore; reference h1601-008
[12] = biological target: T2, human thrombin with His tag; assay: BIAcore, antibody captured by anti-human antibody
[13] = biological target: T2, human thrombin with His tag; assay: biacore; selectivity thrombin over pro-thrombin, reference h1601-008
[14] = biological target: T1, human prothrombin with His tag; assay: BIAcore, antibody captured by anti-human antibody

Row | Binder | EC50 [6] [nM] | Kd [7] [nM] | Kd [8] [nM] | Selective activity [9] | Fold of Affinity relative to h1601-008 [10] [fold] | Fold of Affinity relative to h1601-008 [11] [fold] | other results
1 | B1 | – | – | – | – | – | – | Kd [1]: 78.7 nM; Kd [2]: 2.27 nM; EC50 [3]: 42.6 nM; EC50 [4]: 0.71 nM; binding result [5]: no binding
2 | B2 | 5.8 | – | – | – | – | – | –
3 | B3 | – | 1.23 | 0.0899 | 13.7 | 62.4 | 86.5 | –
4 | B4 | – | 2.05 | 0.172 | 11.9 | 37.5 | 45.2 | –
5 | B5 | 1.49 | – | – | – | – | – | Kd [12]: 8.17 nM
6 | B6 | – | 3.48 | 0.191 | 18.2 | 22.1 | 40.7 | fold increase of selectivity (against h1601-008) [13]: 1.8 times
7 | B7 | – | 2.62 | 0.144 | 18.2 | 29.3 | 54 | –
8 | B8 | 1.54 | 76.8 | 7.78 | 9.9 | 1 | 1 | Kd [14]: 94.3 nM; Kd [12]: 8.97 nM
9 | B9 | 4.45 | – | – | – | – | – | –

— patent US20190315886A1 (JIANGSU HENGRUI MEDICINE, published 2019)
